Values joined by “and” are separate entries in the source; they are usually repeats but may differ in a detail not shown here. Equal entries are not always repeated.
Conditions: Bos taurus, pH 8.4, 23 °C, GdnHCl, HPLC, Tris-HCl 0.1 M, reversible: yes, whole UniProt chain shown

B1: Alpha-lactalbumin wild type, P00711 (protein)
chain: MMSFVSLLLVGILFHATQAEQLTKCEVFRELKDLKGYGGVSLPEWVCTTFHTSGYDTQAIVQNNDSTEYGLFQINNKIWCKDDQNPHSSNICNISCDKFLDDDLTDDIMCVKKILDKVGINYWLAHKALCSEKLDQWLCEKL
CaCl2 5 mM
  denaturant m value: 2.1 kcal/mol/M and 2.4 kcal/mol/M
  denaturant midpoint (higher = more stable): 2.15 M and 1.4 M
  unfolding free energy: 4.52 kcal/mol and 3.36 kcal/mol
  denaturant m value: 2.3 kcal/mol/M and 3.4 kcal/mol/M
  denaturant midpoint (higher = more stable): 1.1 M and 0.4 M
  unfolding free energy: 2.53 kcal/mol and 1.36 kcal/mol

Source: FireProtDB (doi:10.1021/bi048182n)
